The values below come from the Human Domainome abundance scans (Beltran et al. 2025).

± gives the uncertainty stated by the source.

A short description of the data set: abundance fitness (aPCA) (normalised: wild type 0, dead -1); higher = more abundant; growth selection in yeast, the domain comes from the species named. The conditions noted are these: Homo sapiens.
For the substance “Scaffold attachment factor B2 V35W, Q14151”, the abundance fitness was -0.684 ± 0.083.

“Scaffold attachment factor B2 V55A, Q14151”: the abundance fitness was -0.052 ± 0.095.

Regarding “Scaffold attachment factor B2 V55C, Q14151”, the abundance fitness was -0.294 ± 0.12.

For “Scaffold attachment factor B2 V55D, Q14151”, the abundance fitness was -0.007 ± 0.1.

As for “Scaffold attachment factor B2 V55E, Q14151”, the abundance fitness came out at 0.086 ± 0.097.

As to “Scaffold attachment factor B2 V55F, Q14151”, the abundance fitness is -0.748 ± 0.29.

Turning to “Scaffold attachment factor B2 V55G, Q14151”, the abundance fitness was -0.438 ± 0.076.

For “Scaffold attachment factor B2 V55H, Q14151”, the abundance fitness is -0.583 ± 0.15.

For “Scaffold attachment factor B2 V55I, Q14151”, the abundance fitness is -0.668 ± 0.27.

For the substance “Scaffold attachment factor B2 V55K, Q14151”, the abundance fitness is -0.267 ± 0.094.

As to “Scaffold attachment factor B2 V55L, Q14151”, the abundance fitness is -0.167 ± 0.14.

Turning to “Scaffold attachment factor B2 V55M, Q14151”, the abundance fitness is -0.02 ± 0.23.

Regarding “Scaffold attachment factor B2 V55P, Q14151”, the abundance fitness was -0.643 ± 0.13.

As to “Scaffold attachment factor B2 V55Q, Q14151”, the abundance fitness was -0.173 ± 0.1.

Turning to “Scaffold attachment factor B2 V55R, Q14151”, the abundance fitness was -0.326 ± 0.075.

For “Scaffold attachment factor B2 V55S, Q14151”, the abundance fitness is -0.496 ± 0.11.

As to “Scaffold attachment factor B2 V55W, Q14151”, the abundance fitness is -0.811 ± 0.1.

Turning to “Scaffold attachment factor B2 V55Y, Q14151”, the abundance fitness is -0.605 ± 0.18.

As for “Scaffold attachment factor B2 V64A, Q14151”, the abundance fitness is -0.227 ± 0.096.

Regarding “Scaffold attachment factor B2 V64C, Q14151”, the abundance fitness is -0.312 ± 0.14.

Turning to “Scaffold attachment factor B2 V64D, Q14151”, the abundance fitness was -0.232 ± 0.18.

For “Scaffold attachment factor B2 V64E, Q14151”, the abundance fitness was -0.109 ± 0.098.

On to “Scaffold attachment factor B2 V64F, Q14151”, for which the abundance fitness is -0.326 ± 0.12.

As to “Scaffold attachment factor B2 V64G, Q14151”, the abundance fitness was -0.294 ± 0.091.

For “Scaffold attachment factor B2 V64H, Q14151”, the abundance fitness was -0.173 ± 0.1.

As to “Scaffold attachment factor B2 V64I, Q14151”, the abundance fitness is -0.271 ± 0.14.

In the case of “Scaffold attachment factor B2 V64K, Q14151”, the abundance fitness is -0.035 ± 0.14.

The substance “Scaffold attachment factor B2 V64L, Q14151” displayed an abundance fitness of 0.006 ± 0.098.

On to “Scaffold attachment factor B2 V64M, Q14151”, for which the abundance fitness is -0.013 ± 0.13.

Turning to “Scaffold attachment factor B2 V64N, Q14151”, the abundance fitness was -0.418 ± 0.21.

In the case of “Scaffold attachment factor B2 V64Q, Q14151”, the abundance fitness is -0.141 ± 0.16.

“Scaffold attachment factor B2 V64R, Q14151”: the abundance fitness is -0.14 ± 0.09.

“Scaffold attachment factor B2 V64S, Q14151”: the abundance fitness was -0.242 ± 0.084.

As for “Scaffold attachment factor B2 V64T, Q14151”, the abundance fitness was -0.123 ± 0.11.

For the substance “Scaffold attachment factor B2 V64W, Q14151”, the abundance fitness is -0.025 ± 0.086.

For “Scaffold attachment factor B2 V64Y, Q14151”, the abundance fitness is -0.274 ± 0.31.

In the case of “Tyrosine-protein kinase Lck D77E, P06239”, the abundance fitness was -0.02 ± 0.13.

Turning to “Tyrosine-protein kinase Lck E83K, P06239”, the abundance fitness was -0.049 ± 0.12.

On to “Tyrosine-protein kinase Lck E92N, P06239”, for which the abundance fitness was -0.047 ± 0.14.

The substance “Tyrosine-protein kinase Lck E96D, P06239” gave an abundance fitness of 0.069 ± 0.16.

For “Tyrosine-protein kinase Lck E108T, P06239”, the abundance fitness was found to be 0.034 ± 0.12.

“Tyrosine-protein kinase Lck F110Y, P06239” gave an abundance fitness of 0.001 ± 0.19.

Consider “Tyrosine-protein kinase Lck F113S, P06239”, for which the abundance fitness was 0.094 ± 0.071.

The substance “Tyrosine-protein kinase Lck F115Y, P06239” showed an abundance fitness of 0.148 ± 0.12.

As for “Tyrosine-protein kinase Lck G78D, P06239”, the abundance fitness is -0.088 ± 0.099.

For “Tyrosine-protein kinase Lck G81S, P06239”, the abundance fitness is -0.096 ± 0.078.

“Tyrosine-protein kinase Lck H70Y, P06239”: the abundance fitness was -0.029 ± 0.12.

Turning to “Tyrosine-protein kinase Lck H76T, P06239”, the abundance fitness was -0.17 ± 0.1.

Consider “Tyrosine-protein kinase Lck I67A, P06239”, for which the abundance fitness is -0.465 ± 0.1.

With “Tyrosine-protein kinase Lck I67C, P06239”, the abundance fitness is -0.193 ± 0.12.

Consider “Tyrosine-protein kinase Lck I67D, P06239”, for which the abundance fitness was -0.506 ± 0.21.

Take “Tyrosine-protein kinase Lck I67E, P06239”: the abundance fitness is -0.146 ± 0.11.

As to “Tyrosine-protein kinase Lck I67F, P06239”, the abundance fitness was -0.102 ± 0.16.

In the case of “Tyrosine-protein kinase Lck I67G, P06239”, the abundance fitness is -0.552 ± 0.079.

Consider “Tyrosine-protein kinase Lck I67H, P06239”, for which the abundance fitness was -0.353 ± 0.13.

As to “Tyrosine-protein kinase Lck I67K, P06239”, the abundance fitness was -0.442 ± 0.14.

Regarding “Tyrosine-protein kinase Lck I67N, P06239”, the abundance fitness is -0.206 ± 0.15.

Turning to “Tyrosine-protein kinase Lck I67P, P06239”, the abundance fitness is -0.607 ± 0.15.

On to “Tyrosine-protein kinase Lck I67Q, P06239”, for which the abundance fitness was -0.394 ± 0.14.

For the substance “Tyrosine-protein kinase Lck I67R, P06239”, the abundance fitness is -0.263 ± 0.097.

On to “Tyrosine-protein kinase Lck I67S, P06239”, for which the abundance fitness is -0.378 ± 0.08.

“Tyrosine-protein kinase Lck I67T, P06239” had an abundance fitness of 0.151 ± 0.16.

In the case of “Tyrosine-protein kinase Lck I67W, P06239”, the abundance fitness is -0.078 ± 0.11.

In turn, “Tyrosine-protein kinase Lck I67Y, P06239” registered an abundance fitness of 0.097 ± 0.25.

“Tyrosine-protein kinase Lck K99L, P06239”: the abundance fitness is -0.125 ± 0.074.

With “Tyrosine-protein kinase Lck P74A, P06239”, the abundance fitness is -0.414 ± 0.1.

As to “Tyrosine-protein kinase Lck Q87R, P06239”, the abundance fitness was -0.01 ± 0.077.

In the case of “Tyrosine-protein kinase Lck Q101H, P06239”, the abundance fitness is -0.328 ± 0.16.

“Tyrosine-protein kinase Lck R89Q, P06239” registered an abundance fitness of 0.125 ± 0.29.

With “Tyrosine-protein kinase Lck S71D, P06239”, the abundance fitness is -0.095 ± 0.14.

In the case of “Tyrosine-protein kinase Lck S75R, P06239”, the abundance fitness is -0.064 ± 0.081.
